The record followed here is US20240409645A1 (DUALYX, published 2024).

Substitutions are numbered along the chain they refer to.

T1: human IL-2Rβ (human, UniProt P14784 27-240, limits assumed)
T1 construct: Recombinant protein, coated (ELISA) or immobilised on CM5 (SPR); also called hu IL-2R; interleukin 2 receptor β-chain
T1 sequence: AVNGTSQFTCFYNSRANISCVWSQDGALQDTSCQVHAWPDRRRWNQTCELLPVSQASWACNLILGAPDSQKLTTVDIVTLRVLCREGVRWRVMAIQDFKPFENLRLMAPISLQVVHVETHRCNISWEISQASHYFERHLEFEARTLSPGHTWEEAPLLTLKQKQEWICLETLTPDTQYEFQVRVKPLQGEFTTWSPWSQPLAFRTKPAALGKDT

B1: FJ1427_P035MP03C07 (VHH)
VHH: QVQLVESGGGLVQAGDSLRLSCAASGRSLSTDCMGWVRQAPGKEREFVAGITWGTGSTLYADSVEGRFTISKDNAKNTGYLQMSSLKPEDTAVYYCAVDRYCYRGTVYRDWGRGTQVTVSS
notes: soluble VHH in periplasmic extract; also called clone nr
B2: FJ1427 P035MP03H10 (VHH)
VHH: QVQLVESGGGLVQAGGSLRLSCAASGRTFSTTEMGWFRQAPGKEREFVAAITWTGRGTMYAESVEGRFTISRENAKNMVYLQMNSLKPEDTAIYYCAAARRGRAAVRSEGGYDFWGQGTQVTVSS
notes: as for B1
B3: FJ1427_P035MP03G05 (VHH)
VHH: EVQLVESGGGLVQIGGSLRLSCAASGRTFSSITMAYFRQVPGKEREWVAGINFSGTRTFYADSVKGRFLISRDDAKSTMYLQMNSLKPEDTAVYYCAASPRGFYGPGNALYDYWGQGTQVTVSS
notes: as for B1
B4: FJ1427_P035MP03E10 (VHH)
VHH: EVQLVESGGGLVQPGGSLRLSCAASGFTFRNYAMSWVRQAPGKGLEWVGGITGEGLGTIYQDSVEGRFTISRNNAKNTLYLQMNSLRSEDTAVYYCTKMASGTLFRDKPYEYTSRGQGTQVTVSS
notes: as for B1
B5: FJ1427 P035MP06G01 (VHH)
VHH: EVQLVESGGGLVQAGDSLRLSCVVSGRGFSTYTMGWFRQAPGKEREFVAAITWSTGRTSYADSVKGRFTISRENAENTVYLQMNSLELEDTAVYYCATDQVLWTTRPRDMRYWGQGTQVTVSF
notes: as for B1
B6: FJ1427_P035MP03G09 (VHH)
VHH: QVQLVESGGGLVQAGGSLRLSCVVSGDVFVRYTMAWFRQAPGKEREFVAVVTDSGRTTEYVDSVKGRFTVSRDNAKNTVYLQMNNLKPEDTAVYYCAANTDYFQIRSVDNNAWGQGTQVTVSS
notes: as for B1
B7: FJ1427_P035MP03H07 (VHH)
VHH: B6 VHH with Q1E, V50A
notes: as for B1
B8: FJ1427_P035MP03G11 (VHH)
VHH: B6 VHH with Q1E, V23A, V24A, V50S, E59D, V108L, D109E, N110F, A112T
notes: as for B1
B9: FJ1427_P035MP06E02 (VHH)
VHH: B6 VHH with V23A, V50T, Q104R, V108L, N110A, A112T
notes: as for B1
B10: FJ1427_P035MP06A01 (VHH)
VHH: QVQLVESGGGLVQAGGSLRLACALSGDVFVRYTMAWFRQAPGKEREFVASVTDSGRTTDYVASVQGRFTVSRDNNKNTVYLQMNSLKPEDTAVYYCAANTDYFQIRSLDRNTWGQGTQVTVSS
notes: as for B1
B11: FJ1427_P035MP06B02 (VHH)
VHH: B6 VHH with V50A
notes: soluble VHH in periplasmic extract; also called clone nr; 490
B12: FJ1427_P035MP06C01 (VHH)
VHH: B10 VHH with A21S, L24A, A62D, Q65K, N75A, S85A, R106K, R110L
notes: as for B1
B13: FJ1427_P035MP06H01 (VHH)
VHH: B10 VHH with Q1E, A21S, L24V, A62H, Q65K, N75A, S85N, R106K, R110A
notes: as for B1
B14: FJ1427 P035MP03A06 (VHH)
VHH: EVQLVESGGGLVQTGGSLRLSCAVSGSRFISDVMGWYRQVPGKARELVADMADGGSAKYADSVKGRFSIVRDSGKSTMYLQMSSLKPEDTGMYYCKAGLWIAGRHSDYWGQGTQVTVSS
notes: as for B1
B15: FJ1427_P035MP03H09 (VHH)
VHH: QVQLVESGGGLVQAGGSLRLSCAASGSIFSINAMGWFRQAPGKEREFVAAISRSGGSTAYVDSVKGRFTISRDNSKNMVHLQMNSLKSEDEAVYYCAATAAVGWTSRWITTDFDSWGQGTQVTVSS
notes: as for B1
B16: FJ1427_P035MP03G07 (VHH)
VHH: QVQLVESGGGLVQAGGSLRLSCAASGRTFSSDAKGWFRQAPGKEREFVAAITWAGRGTDYADSVKGRFTITRDNAKNMVYLQMSNLKPEDTAVYYCALNPEGVIGPYFRNSNRYNYWGQGTQVTVSS
notes: as for B1
B17: FJ1427 P035MP03F11 (VHH)
VHH: QVQLVESGGGLAQAGGSLRLSCAASGRTFSQDAKAWFRQAPGKEREFVAAITWSGRDTDYADSVKGRFTIARDNAKNTVYLQMDSLKPEDTAVYYCAVYPQGTIGPYFRSSNHYDYWGQGTQVTVSS
notes: as for B1
B18: FJ1427_P035MP03A09 (VHH)
VHH: QVQLVESGGGLVQAGGSLRLACAASGRTFSTLTMGWFRQAPGKEREFVAGISPSGGYAWHADSVKGRFTIDRDNAKNTVYLQTRSLRPEDTAVYYCAADHPPYGAVASRSEYEYDDWGPGTRVTVSS
notes: as for B1
B19: FJ1427_P035MP03D10 (VHH)
VHH: QVQLQESGGGLVQAGDSLRLSCVVSGRDFSGYTMGWFRQPPGKEREFVALITWSTGRVHYTDSVEGRFTISRDSAKNTVYLQMNSLKPEDTAVYTCAAGRVGYTTNLHSYDYSGQGTQVIVSA
notes: as for B1
B20: FJ1427_P035MP03G10 (VHH)
VHH: QVQLVESGGGLVQAGGSLRLSCAASGRSYAMGWFRQAPGKEREFVAAISWSASSTYYSESVKGRFTISRENAKNTVYLQMNSLKPEDTAVYYCAVRASPFVAGSYDPSDDPADYGSWGQGTQVIVSS
notes: as for B1
B21: FJ1427_P035MP03E08 (VHH)
VHH: QVQLVESGGGLVQAGGSLRLSCAAAGRAIENYPVGWFRRAPGKEREFVAAITWISGSTLYADSVKGRFTISRDNAKNTVYLQMSSLKPEDTALYYCAAALKTITRGQNDYSYWGQGTQVTVSS
notes: as for B1
B22: FJ1427_P035MP03A07 (VHH)
VHH: QVQLVESGGGLVEAGGSLRLSCAASGRAFNNFPMGWFRQAPGKEREFVAAITWISGSTLYADSVKGRFTISRDKSKNTVYLQMSGLKPEDTALYYCAAALKTITRGQHDYTYWGQGTQVTVSS
notes: as for B1
B23: FJ1427 P035MP03F09 (VHH)
VHH: B21 VHH with Q1E, R19T, A25S, I29F, E30S, R39Q, I54L, K65E, Q82L, Y95F
notes: as for B1
B24: FJ1427 P035MP03C12 (VHH)
VHH: QVQLVESGGGLVQAGGSLRLSCAASGRAFSTYSMGWFRQTPGKEREFVAIISESGGIIDYGDSVKGRFTLSRDNAKNTVSLQMSSLQPEDTAVYYCAAARDWFARTAYQYDYWGQGTQVTVSA
notes: as for B1
B25: FJ1427 P035MP03D11 (VHH)
VHH: QVQLVESGGGLVQAGGSLRLSCAASGRTFSTTDVGWFRQAPGKEREFVAAITWSSHSTLYADSVEGRFTVTRENAKNTVYLQMNSLKPEDTAVYYCAAVRRGWAVVRTEGAYDFWGQGTQVTVSA
notes: as for B1
B26: FJ1427 P035MP03E05 (VHH)
VHH: EVQLVESGGGLVQAGGSLRLSCAVSGVIFWSDVVGWYRQASGKQRELVATINLDDTKHYGEVVKGRFAISRDSHKNAYYLQLNSLKPEDTAVYYCNVRRGSEFYWGQGTQVTVSS
notes: as for B1

In the first assay the target is T1, human IL-2Rβ. The assay can be described thus: SPR (Biacore), P.E. off-rate ranking. In general terms: Surface plasmon resonance follows binding to a sensor surface in real time, without labels.
A word on the koff: it is a measure of how fast the partners let go of each other. Low values mean a long-lived complex, high ones a short-lived complex. B1 showed a koff of 0.000533 s⁻¹.
The molecule B2 had a koff of 0.00109 s⁻¹.
Still for that read-out and setting: in the case of B3 it was 0.000351 s⁻¹; in that of B4, 0.00207 s⁻¹.
Turning to B5, the koff amounted to 0.000143 s⁻¹. Against the preceding molecule, the koff is about 14-fold lower.
On the same count and under the same terms, the same measure for B6: 0.000713 s⁻¹.
On the same count and under the same terms, the same measure for B7: 0.00172 s⁻¹.
On the same count and under the same terms, the same measure for B8: 0.00122 s⁻¹; for B9: 0.00149 s⁻¹; for B10: 0.000561 s⁻¹.
Molecule B11 gave a koff of 0.000853 s⁻¹.
In turn, B12 registered a koff of 0.000544 s⁻¹.
B13 gave a koff of 0.00101 s⁻¹.
The same measure, in the same setting: the same measure for B14: 0.000195 s⁻¹.
Molecule B15 came in with a koff of 0.00184 s⁻¹.
On the same count and under the same terms, in the case of B16 it was 0.00286 s⁻¹; in that of B17, 0.000277 s⁻¹.
On the same count and under the same terms, in the case of B18 it was 0.00048 s⁻¹.
On the same count and under the same terms, in the case of B19 it was 0.0012 s⁻¹.
The molecule B20 gave a koff of 0.00165 s⁻¹.
For the molecule B21, the koff amounted to 0.000149 s⁻¹.
Still for that read-out and setting: in the case of B22 it was 0.000281 s⁻¹.
The molecule B23 registered a koff of 0.000347 s⁻¹.
Same read-out and setting: in the case of B24 it was 0.0014 s⁻¹; in that of B25, 0.00102 s⁻¹.
The molecule B26 displayed a koff of 0.000526 s⁻¹.

The next assay concerns the target T1, human IL-2Rβ. The assay can be described thus: P.E. binding ELISA on coated protein. An outline of the steps: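 Human or mouse IL-2Rα, IL-2Rβ or IL-2Rγ protein coated directly overnight at 4° C, blocked with 4% Marvel/PBS for 1 hour.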
On the technique in general: An ELISA detects its analyte on a solid surface through an enzyme-linked reagent.
Consider B1, for which the “P.E. binding ELISA OD” value worked out at 0.372 OD450 nm.
Still for that read-out and setting: in the case of B2 it was 0.578 OD450 nm.
The same measure, in the same setting: in the case of B3 it was 0.914 OD450 nm; in that of B4, 0.398 OD450 nm.
The same measure, in the same setting: the same measure for B5: 0.557 OD450 nm; for B6: 0.843 OD450 nm.
With B7, the “P.E. binding ELISA OD” value stood at 0.649 OD450 nm.
The same measure, in the same setting: the same measure for B8: 0.38 OD450 nm.
On to B9, for which the “P.E. binding ELISA OD” value is 0.148 OD450 nm.
Same read-out and setting: the same measure for B10: 0.348 OD450 nm.
The same measure, in the same setting: the same measure for B11: 0.435 OD450 nm; for B12: 1.34 OD450 nm; for B13: 0.72 OD450 nm.
For the molecule B14, the “P.E. binding ELISA OD” value was found to be 0.393 OD450 nm.
Consider B15, for which the “P.E. binding ELISA OD” value amounted to 0.166 OD450 nm.
The same measure, in the same setting: the same measure for B16: 0.201 OD450 nm.
Take B17: the “P.E. binding ELISA OD” value came out at 0.474 OD450 nm.
Same read-out and setting: the same measure for B18: 0.208 OD450 nm; for B19: 0.118 OD450 nm.
Same read-out and setting: the same measure for B20: 0.26 OD450 nm.
For B21, the “P.E. binding ELISA OD” value turned out to be 1.11 OD450 nm.
On to B22, for which the “P.E. binding ELISA OD” value was determined as 0.307 OD450 nm.
Same read-out and setting: the same measure for B23: 0.621 OD450 nm; for B24: 0.321 OD450 nm; for B25: 0.118 OD450 nm.
Regarding B26, the “P.E. binding ELISA OD” value turned out to be 0.23 OD450 nm.
